Data from patent US20220227830A1, “QD DOSING OF GIP RECEPTOR AGONIST PEPTIDE COMPOUNDS AND USES THEREOF” (Takeda Pharmaceutical Company Limited, priority 2020, published 2022).
Starred links: 1 amine or outer side, 2 acyl side, 3 side chain; linkers in the order of their positions; H or OH if unused. Non-standard residues stand in square brackets, D forms with d. Groups on a side chain read outwards from the residue. No end group written: not given here. *: point of attachment. C15 diacid = O=C(O)CCCCCCCCCCCCCC(=O)*; γGlu = O=C(O)[C@H](CCC(=O)[*:2])N[*:1]; NMeY = CN[C@@H](Cc1ccc(O)cc1)C(=O)O; AEEA = NCCOCCOCC(=O)O; Aib = CC(C)(N)C(=O)O

B1: Compound 129 (peptide)
peptide: [NMeY][Aib]EGTFISDYSI[Aib]K([AEEA-AEEA-γGlu-C15 diacid])DR[Aib]AQ[Aib]DFVNWLLAQSPSSGAPPPS-NH2
modifications: N-terminus assumed
SMILES: CC[C@H](C)[C@H](NC(=O)[C@H](Cc1ccccc1)NC(=O)[C@@H](NC(=O)CNC(=O)[C@H](CCC(=O)O)NC(=O)C(C)(C)NC(=O)[C@H](Cc1ccc(O)cc1)NC)[C@@H](C)O)C(=O)N[C@@H](CO)C(=O)N[C@@H](CC(=O)O)C(=O)N[C@@H](Cc1ccc(O)cc1)C(=O)N[C@@H](CO)C(=O)N[C@H](C(=O)NC(C)(C)C(=O)N[C@@H](CCCCNC(=O)COCCOCCNC(=O)COCCOCCNC(=O)CC[C@H](NC(=O)CCCCCCCCCCCCCC(=O)O)C(=O)O)C(=O)N[C@@H](CC(=O)O)C(=O)N[C@@H](CCCNC(=N)N)C(=O)NC(C)(C)C(=O)N[C@@H](C)C(=O)N[C@@H](CCC(N)=O)C(=O)NC(C)(C)C(=O)N[C@@H](CC(=O)O)C(=O)N[C@@H](Cc1ccccc1)C(=O)N[C@H](C(=O)N[C@@H](CC(N)=O)C(=O)N[C@@H](Cc1c[nH]c2ccccc12)C(=O)N[C@@H](CC(C)C)C(=O)N[C@@H](CC(C)C)C(=O)N[C@@H](C)C(=O)N[C@@H](CCC(N)=O)C(=O)N[C@@H](CO)C(=O)N1CCC[C@H]1C(=O)N[C@@H](CO)C(=O)N[C@@H](CO)C(=O)NCC(=O)N[C@@H](C)C(=O)N1CCC[C@H]1C(=O)N1CCC[C@H]1C(=O)N1CCC[C@H]1C(=O)N[C@@H](CO)C(N)=O)C(C)C)[C@@H](C)CC
B2: Compound 130 (peptide)
peptide: [NMeY][Aib]EGTFISDYSIALDR[Aib]AQ[Aib]KFVNWLLAQRPSSGAPPPS-NH2
modifications: not fully specified (residue 21)
B3: Compound 125 (peptide)
peptide: [NMeY][Aib]EGTFISDYSIAK([Gly-Gly-Gly-Gly-Gly-γGlu-C15 diacid])DR[Aib]AQ[Aib]NFVNWLLAQSPSSGAPPPS-NH2
modifications: N-terminus assumed
SMILES: CC[C@H](C)[C@H](NC(=O)[C@H](CO)NC(=O)[C@H](Cc1ccc(O)cc1)NC(=O)[C@H](CC(=O)O)NC(=O)[C@H](CO)NC(=O)[C@@H](NC(=O)[C@H](Cc1ccccc1)NC(=O)[C@@H](NC(=O)CNC(=O)[C@H](CCC(=O)O)NC(=O)C(C)(C)NC(=O)[C@H](Cc1ccc(O)cc1)NC)[C@@H](C)O)[C@@H](C)CC)C(=O)N[C@@H](C)C(=O)N[C@@H](CCCCNC(=O)CNC(=O)CNC(=O)CNC(=O)CNC(=O)CNC(=O)CC[C@H](NC(=O)CCCCCCCCCCCCCC(=O)O)C(=O)O)C(=O)N[C@@H](CC(=O)O)C(=O)N[C@@H](CCCNC(=N)N)C(=O)NC(C)(C)C(=O)N[C@@H](C)C(=O)N[C@@H](CCC(N)=O)C(=O)NC(C)(C)C(=O)N[C@@H](CC(N)=O)C(=O)N[C@@H](Cc1ccccc1)C(=O)N[C@H](C(=O)N[C@@H](CC(N)=O)C(=O)N[C@@H](Cc1c[nH]c2ccccc12)C(=O)N[C@@H](CC(C)C)C(=O)N[C@@H](CC(C)C)C(=O)N[C@@H](C)C(=O)N[C@@H](CCC(N)=O)C(=O)N[C@@H](CO)C(=O)N1CCC[C@H]1C(=O)N[C@@H](CO)C(=O)N[C@@H](CO)C(=O)NCC(=O)N[C@@H](C)C(=O)N1CCC[C@H]1C(=O)N1CCC[C@H]1C(=O)N1CCC[C@H]1C(=O)N[C@@H](CO)C(N)=O)C(C)C
B4: Compound 127 (peptide)
peptide: [NMeY][Aib]EGTFISDYSIALDRK([AEEA-AEEA-γGlu-C15 diacid])AQ[Aib]NFVNWLLAQSPSSGAPPPS-NH2
modifications: N-terminus assumed
SMILES: CC[C@H](C)[C@H](NC(=O)[C@H](CO)NC(=O)[C@H](Cc1ccc(O)cc1)NC(=O)[C@H](CC(=O)O)NC(=O)[C@H](CO)NC(=O)[C@@H](NC(=O)[C@H](Cc1ccccc1)NC(=O)[C@@H](NC(=O)CNC(=O)[C@H](CCC(=O)O)NC(=O)C(C)(C)NC(=O)[C@H](Cc1ccc(O)cc1)NC)[C@@H](C)O)[C@@H](C)CC)C(=O)N[C@@H](C)C(=O)N[C@@H](CC(C)C)C(=O)N[C@@H](CC(=O)O)C(=O)N[C@@H](CCCNC(=N)N)C(=O)N[C@@H](CCCCNC(=O)COCCOCCNC(=O)COCCOCCNC(=O)CC[C@H](NC(=O)CCCCCCCCCCCCCC(=O)O)C(=O)O)C(=O)N[C@@H](C)C(=O)N[C@@H](CCC(N)=O)C(=O)NC(C)(C)C(=O)N[C@@H](CC(N)=O)C(=O)N[C@@H](Cc1ccccc1)C(=O)N[C@H](C(=O)N[C@@H](CC(N)=O)C(=O)N[C@@H](Cc1c[nH]c2ccccc12)C(=O)N[C@@H](CC(C)C)C(=O)N[C@@H](CC(C)C)C(=O)N[C@@H](C)C(=O)N[C@@H](CCC(N)=O)C(=O)N[C@@H](CO)C(=O)N1CCC[C@H]1C(=O)N[C@@H](CO)C(=O)N[C@@H](CO)C(=O)NCC(=O)N[C@@H](C)C(=O)N1CCC[C@H]1C(=O)N1CCC[C@H]1C(=O)N1CCC[C@H]1C(=O)N[C@@H](CO)C(N)=O)C(C)C
B5: Compound 128 (peptide)
peptide: [NMeY][Aib]EGTFISDYSI[Aib]K([AEEA-AEEA-γGlu-C15 diacid])DR[Aib]AQ[Aib]DFVNWLLAQRPSSGAPPPS-NH2
modifications: N-terminus assumed
SMILES: CC[C@H](C)[C@H](NC(=O)[C@H](Cc1ccccc1)NC(=O)[C@@H](NC(=O)CNC(=O)[C@H](CCC(=O)O)NC(=O)C(C)(C)NC(=O)[C@H](Cc1ccc(O)cc1)NC)[C@@H](C)O)C(=O)N[C@@H](CO)C(=O)N[C@@H](CC(=O)O)C(=O)N[C@@H](Cc1ccc(O)cc1)C(=O)N[C@@H](CO)C(=O)N[C@H](C(=O)NC(C)(C)C(=O)N[C@@H](CCCCNC(=O)COCCOCCNC(=O)COCCOCCNC(=O)CC[C@H](NC(=O)CCCCCCCCCCCCCC(=O)O)C(=O)O)C(=O)N[C@@H](CC(=O)O)C(=O)N[C@@H](CCCNC(=N)N)C(=O)NC(C)(C)C(=O)N[C@@H](C)C(=O)N[C@@H](CCC(N)=O)C(=O)NC(C)(C)C(=O)N[C@@H](CC(=O)O)C(=O)N[C@@H](Cc1ccccc1)C(=O)N[C@H](C(=O)N[C@@H](CC(N)=O)C(=O)N[C@@H](Cc1c[nH]c2ccccc12)C(=O)N[C@@H](CC(C)C)C(=O)N[C@@H](CC(C)C)C(=O)N[C@@H](C)C(=O)N[C@@H](CCC(N)=O)C(=O)N[C@@H](CCCNC(=N)N)C(=O)N1CCC[C@H]1C(=O)N[C@@H](CO)C(=O)N[C@@H](CO)C(=O)NCC(=O)N[C@@H](C)C(=O)N1CCC[C@H]1C(=O)N1CCC[C@H]1C(=O)N1CCC[C@H]1C(=O)N[C@@H](CO)C(N)=O)C(C)C)[C@@H](C)CC
B6: Compound 123 (peptide)
peptide: [NMeY][Aib]EGTFISDYSI[Aib]LDR[Aib]AQ[Aib]NFVNWLLAQKPSSGAPPPS-NH2
modifications: not fully specified (residue 30)
B7: Compound 126 (peptide)
peptide: [NMeY][Aib]EGTFISDYSIAK([Gly-Gly-Gly-Gly-Gly-γGlu-C15 diacid])DR[Aib]AQ[Aib]DFVNWLLAQRPSSGAPPPS-NH2
modifications: N-terminus assumed
SMILES: CC[C@H](C)[C@H](NC(=O)[C@H](CO)NC(=O)[C@H](Cc1ccc(O)cc1)NC(=O)[C@H](CC(=O)O)NC(=O)[C@H](CO)NC(=O)[C@@H](NC(=O)[C@H](Cc1ccccc1)NC(=O)[C@@H](NC(=O)CNC(=O)[C@H](CCC(=O)O)NC(=O)C(C)(C)NC(=O)[C@H](Cc1ccc(O)cc1)NC)[C@@H](C)O)[C@@H](C)CC)C(=O)N[C@@H](C)C(=O)N[C@@H](CCCCNC(=O)CNC(=O)CNC(=O)CNC(=O)CNC(=O)CNC(=O)CC[C@H](NC(=O)CCCCCCCCCCCCCC(=O)O)C(=O)O)C(=O)N[C@@H](CC(=O)O)C(=O)N[C@@H](CCCNC(=N)N)C(=O)NC(C)(C)C(=O)N[C@@H](C)C(=O)N[C@@H](CCC(N)=O)C(=O)NC(C)(C)C(=O)N[C@@H](CC(=O)O)C(=O)N[C@@H](Cc1ccccc1)C(=O)N[C@H](C(=O)N[C@@H](CC(N)=O)C(=O)N[C@@H](Cc1c[nH]c2ccccc12)C(=O)N[C@@H](CC(C)C)C(=O)N[C@@H](CC(C)C)C(=O)N[C@@H](C)C(=O)N[C@@H](CCC(N)=O)C(=O)N[C@@H](CCCNC(=N)N)C(=O)N1CCC[C@H]1C(=O)N[C@@H](CO)C(=O)N[C@@H](CO)C(=O)NCC(=O)N[C@@H](C)C(=O)N1CCC[C@H]1C(=O)N1CCC[C@H]1C(=O)N1CCC[C@H]1C(=O)N[C@@H](CO)C(N)=O)C(C)C
B8: Compound 124 (peptide)
peptide: [NMeY][Aib]EGTFISDYSI[Aib]KDR[Aib]AQ[Aib]NFVNWLLAQRPSSKKKKKK-NH2
modifications: not fully specified (residue 14, N-terminus)

Legend:
[1] = molecular target: T1, full-length human GIPR with an N-terminal FLAG tag (human, UniProt P48546 22-466); assay: cell-based or functional assay
T1 sequence (looked up): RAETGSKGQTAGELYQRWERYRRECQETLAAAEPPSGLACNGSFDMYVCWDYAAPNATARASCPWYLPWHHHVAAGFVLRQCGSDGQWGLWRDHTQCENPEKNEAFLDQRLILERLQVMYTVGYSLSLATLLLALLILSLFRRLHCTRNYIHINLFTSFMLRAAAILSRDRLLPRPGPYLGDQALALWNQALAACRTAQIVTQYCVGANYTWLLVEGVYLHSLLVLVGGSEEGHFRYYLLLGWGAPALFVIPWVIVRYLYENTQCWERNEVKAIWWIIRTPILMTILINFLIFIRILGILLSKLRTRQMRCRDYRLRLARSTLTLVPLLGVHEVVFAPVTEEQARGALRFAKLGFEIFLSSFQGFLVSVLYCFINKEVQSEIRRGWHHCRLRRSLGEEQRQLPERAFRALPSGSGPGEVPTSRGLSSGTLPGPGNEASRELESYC

[2] = molecular target: full-length human GLP-1R with an N-terminal FLAG tag (human, UniProt P43220 24-463); assay: cell-based or functional assay

Row | Binder | Human GIPR cAMP, HEK293T EC50 [1] | Human GLP1R cAMP HEK293T EC50 [2]
1 | B1 | 0.0005 nM | 1000 nM
2 | B2 | 0.0004 nM | 91.2 nM
3 | B3 | 0.0002 nM | 166 nM
4 | B4 | 0.0005 nM | 66.1 nM
5 | B5 | 0.0004 nM | 457 nM
6 | B6 | 0.0004 nM | 22.9 nM
7 | B7 | 0.0002 nM | 589 nM
8 | B8 | 0.004 nM | 126 nM
